These results are taken from patent US20140011732A1 (Novo Nordisk, published 2014).

Starred links: 1 amine or outer side, 2 acyl side, 3 side chain; linkers in the order of their positions; H or OH if unused. Non-standard residues stand in square brackets, D forms with d. Groups on a side chain read outwards from the residue. Primed or numbered codes have the meaning given here. No end group written: not given here. *: point of attachment. C20 diacid = O=C(O)CCCCCCCCCCCCCCCCCCC(=O)*; C18 diacid = O=C(O)CCCCCCCCCCCCCCCCC(=O)*; d(βAsp) = O=C(O)[C@@H](CC(=O)[*:2])N[*:1]; γGlu = O=C(O)[C@H](CCC(=O)[*:2])N[*:1]; 2Nal = N[C@@H](Cc1ccc2ccccc2c1)C(=O)O; Desaminohistidyl = O=C(CCc1c[nH]cn1)*; Trx = NC[C@H]1CC[C@H](C(=O)O)CC1; Trx′ = not defined here; AEEA = NCCOCCOCC(=O)O; Aib = CC(C)(N)C(=O)O; Inp = O=C(O)C1CCNCC1; Bn = c1ccc(C*)cc1 Some results are limits rather than exact numbers.

To fix the notation:
B1: N-alpha37-[2-(2-{2-[2-(2-{2-[(S)-4-Carboxy-4-({trans-4-[(19-carboxynonadecanoylamino)methyl]cyclohexanecarbonyl}amino)butyrylamino]ethoxy}ethoxy)acetylamino]eth … (peptide)
peptide: HAEGTFTSDVSSYLEEQAAREFIAWLVRGRK
modifications: desaminoHis7; Lys37 is bound to the peptide via its epsilon amino group (epsilon-Lys37); its N-alpha carries the acyl side chain printed in the name
B2: N-epsilon37-[2-(2-{2-[(S)-4-Carboxy-4-((S)-4-carboxy-4-{12-[4-(16-(1H-tetrazol-5-yl)hexadecanoylsulfamoyl)butyrylamino]dodecanoylamino}butyrylamino)butyrylamino … (peptide)
peptide: B1 peptide
modifications: Aib8; Lys37 N-epsilon carries the acyl side chain printed in the name; C-terminal amide
B3: [DesaminoHis7,Glu22,Arg26,Arg34]GLP-1-(7-37)Lys[2-(2-{2-[2-(2-{2-[4-Carboxy-4-({trans-4-[(19-carboxy-nonadecanoylamino)methyl]cyclohexanecarbonyl}amino)butyryla … (peptide)
peptide: [Desaminohistidyl]AEGTFTSDVSSYLEEQAAREFIAWLVRGRGK([AEEA-AEEA-γGlu-Trx-C20 diacid])-NH2
SMILES: CC[C@H](C)[C@H](NC(=O)[C@H](Cc1ccccc1)NC(=O)[C@H](CCC(=O)O)NC(=O)[C@H](CCCNC(=N)N)NC(=O)[C@H](C)NC(=O)[C@H](C)NC(=O)[C@H](CCC(N)=O)NC(=O)[C@H](CCC(=O)O)NC(=O)[C@H](CCC(=O)O)NC(=O)[C@H](CC(C)C)NC(=O)[C@H](Cc1ccc(O)cc1)NC(=O)[C@H](CO)NC(=O)[C@H](CO)NC(=O)[C@@H](NC(=O)[C@H](CC(=O)O)NC(=O)[C@H](CO)NC(=O)[C@@H](NC(=O)[C@H](Cc1ccccc1)NC(=O)[C@@H](NC(=O)CNC(=O)[C@H](CCC(=O)O)NC(=O)[C@H](C)NC(=O)CCc1c[nH]cn1)[C@@H](C)O)[C@@H](C)O)C(C)C)C(=O)N[C@@H](C)C(=O)N[C@@H](Cc1c[nH]c2ccccc12)C(=O)N[C@@H](CC(C)C)C(=O)N[C@H](C(=O)N[C@@H](CCCNC(=N)N)C(=O)NCC(=O)N[C@@H](CCCNC(=N)N)C(=O)NCC(=O)N[C@@H](CCCCNC(=O)COCCOCCNC(=O)COCCOCCNC(=O)CC[C@H](NC(=O)[C@H]1CC[C@H](CNC(=O)CCCCCCCCCCCCCCCCCCC(=O)O)CC1)C(=O)O)C(N)=O)C(C)C
B4: [ImPr^7,Arg^26,34,Glu^22]GLP-1-(7-37)Lys[2-(2-[2-((S)-4-((S)-4-(12-[4-(16-1H-tetrazol-5-ylhexadecanoylsulfamoyl)butyrylamino]dodecanoylamino)-4-carboxybutyrylam … (peptide)
peptide: HAEGTFTSDVSSYLEEQAAREFIAWLVRGRGK
modifications: ImPr7 (imidazopropionic acid = des-amino-histidine); the added C-terminal Lys carries the acyl side chain printed in the name; C-terminal amide
B5: [desaminoHis^7,Arg^26,Arg^34]GLP-1-(7-37)Lys[2-(2-[2-(2-[2-(2-((R)-3-[trans-4-((9-Carboxynonadecanoylamino]methyl)cyclohexylcarbonylamino]3-carboxypropionylamin … (peptide)
peptide: [Desaminohistidyl]AEGTFTSDVSSYLEGQAAREFIAWLVRGRGK-NH2
modifications: not fully specified (residue 32); printed as [desaminoHis^7,Arg^26,Arg^34]GLP-1-(7-37)Lys[2-(2-[2-(2-[2-(2-((R)-3-[trans-4-((9-Carboxynonadecanoylamino]methyl)cyclohexylcarbonylamino]3-carboxypropionylamino)ethoxy)ethoxy]acetylamino)ethoxy]ethoxy)acetyl]amide
B6: [Aib8,Glu22,Arg26,Glu30,Pro37]GLP-1-((7-37)Lys … (peptide)
peptide: H[Aib]EGTFTSDVSSYLEEQAAREFIEWLVKGRPK
modifications: not fully specified (residue 32); printed as [Aib8,Glu22,Arg26,Glu30,Pro37]GLP-1-(7-37)Lys (2-(2-(3-(2-(2-(2-(2-(2-(2-(2-(2-(2-(2-(2-(2-[4-(S)-carboxy-4-(4-(S)-carboxy-4-(4-{4-[16-(Tetrazol-5-yl)hexadecanoylsulfamoyl]butanoylamino}butanoylamino) butyrylamino)butyrylamino]ethoxy)ethoxy)ethoxy)ethoxy)ethoxy)ethoxy)ethoxy)ethoxy)ethoxy)ethoxy)ethoxy)ethoxy) propionylamino)ethoxy)ethoxy) peptide
B7: N-epsilon20-[2-(2-{2-[(S)-4-Carboxy-4-((S)-4-carboxy-4-{12-[4-(16-(1H-tetrazol-5-yl)hexadecanoylsulfamoyl)butyrylamino]dodecanoylamino}butyrylamino)butyrylamino … (peptide)
peptide: HAEGTFTSDVSSYKEEQAAREFIEWLVKGRP
modifications: Aib8; Lys20 N-epsilon carries the acyl side chain printed in the name; C-terminal amide
B8: N-epsilon … (peptide)
peptide: HAEGTFTSDVSKYLEEQAAKEFIAWLVQGRG
modifications: not fully specified; Aib8; Lys18 N-epsilon carries the acyl side chain printed in the name
B9: N-epsilon31-(2-{2-[2-(2-{2-[2-((S)-3-Carboxy-3-{[1-(19-carboxy-nonadecanoyl)piperidine-4-carbonyl]amino}propionylamino)ethoxy]ethoxy}acetylamino)ethoxy]ethoxy}a … (peptide)
peptide: H[Aib]EGTFTSDVSSYLEEQAAREFIAKLVRGRG
modifications: not fully specified (residue 25); printed as N-epsilon31-(2-{2-[2-(2-{2-[2-((S)-3-Carboxy-3-{[1-(19-carboxy-nonadecanoyl)piperidine-4-carbonyl]amino}propionylamino)ethoxy]ethoxy}acetylamino)ethoxy]ethoxy}acetyl)[Aib8,Glu22,Arg26,Lys31,Arg34]GLP-1-(7-37)
B10: N-epsilon … (peptide)
peptide: H[Aib]EGTFTSDVSKYLE[Aib]QAAREFIAWLVR[Aib]RG
modifications: not fully specified (residue 12); printed as N-epsilon 18-[2-(2-[2-(2-[2-(2-((R)-3-[trans-4-((9-Carboxynonadecanoylamino]methyl)cyclohexylcarbonylamino]3-carboxypropionylamino)ethoxy)ethoxy]acetylamino)ethoxy]ethoxy)acetyl][Aib8, 22,35, Lys18, Arg26,34]GLP-1-(7-37)
B11: N-epsilon31{2-[2-(2-{2-[2-((S)-3-carboxy-3-{[1-(19-carboxynonadecanoyl)piperidine-4-carbonyl]amino}propionylamino)ethoxy]ethoxy}acetylamino)ethoxy]ethoxy}acetyl … (peptide)
peptide: H[Aib]EGTFTSDVSSYLEEQAAREFIAKLVKGRG
modifications: not fully specified (residue 25); printed as N-epsilon31{2-[2-(2-{2-[2-((S)-3-carboxy-3-{[1-(19-carboxynonadecanoyl)piperidine-4-carbonyl]amino}propionylamino)ethoxy]ethoxy}acetylamino)ethoxy]ethoxy}acetyl [Aib8, Glu22, Arg26,Lys 31]GLP-1-(7-37)
B12: N-epsilon26-[2-(2-[2-(2-[2-(2-((R)-3-[trans-4-((9-Carboxynonadecanoylamino]methyl)cyclohexylcarbonylamino]3-carboxypropionylamino)ethoxy)ethoxy]acetylamino)etho … (peptide)
peptide: H[Aib]EGTFTSDVSSYLEEQAAKEFIAWLVQGRG
modifications: not fully specified (residue 20); printed as N-epsilon26-[2-(2-[2-(2-[2-(2-((R)-3-[trans-4-((9-Carboxynonadecanoylamino]methyl)cyclohexylcarbonylamino]3-carboxypropionylamino)ethoxy)ethoxy]acetylamino)ethoxy]ethoxy)acetyl][Aib8, Glu22, Gln34]GLP-1-(7-37)
B13: N-epsilon30{2-[2-(2-{2-[2-((S)-3-carboxy-3-{[1-(19-carboxynonadecanoyl)piperidine-4-carbonyl]amino}propionylamino)ethoxy]ethoxy}acetylamino)ethoxy]ethoxy}acetyl … (peptide)
peptide: H[Aib]EGTFTSDVSSYLEEQAAREFIKWLVKGRG
modifications: not fully specified (residue 24); printed as N-epsilon30{2-[2-(2-{2-[2-((S)-3-carboxy-3-{[1-(19-carboxynonadecanoyl)piperidine-4-carbonyl]amino}propionylamino)ethoxy]ethoxy}acetylamino)ethoxy]ethoxy}acetyl [Aib8,Glu22,Arg26,Lys30]GLP-1-(7-37)
B14: N-ε^20({2-[2-(2-{2-[2-((R)-3-carboxy-3-{[1-(17-carboxyheptadecanoyl)piperidine-4-carbonyl]amino}propionylamino)ethoxy]ethoxy}acetylamino)ethoxy]ethoxy}acetyl) … (peptide)
peptide: H[Aib]EGTFTSDVSSYK([AEEA-AEEA-d(βAsp)-Inp-C18 diacid])EGQAAREFIEWLT(Bn)KGRG-NH2
modifications: not fully specified; printed as N-ε^20({2-[2-(2-{2-[2-((R)-3-carboxy-3-{[1-(17-carboxyheptadecanoyl)piperidine-4-carbonyl]amino}propionylamino)ethoxy]ethoxy}acetylamino)ethoxy]ethoxy}acetyl) [Aib^8,Lys^20,Arg^28,Glu^30,Thr(O-benzyl)^33,]GLP-1-(7-37)amide
notes: Arg26 used; also called [Aib^8,Lys^20,Arg^26,Glu^30,Thr(O-benzyl)^33,]GLP-1-(7-37)amide derivative
B15: N-epsilon26-[2-(2-{2-[(S)-4-Carboxy-4-((S)-4-carboxy-4-{12-[4-(16-(1H-tetrazol-5-yl)hexadecanoylsulfamoyl)butyrylamino]dodecanoylamino}butyrylamino)butyrylamino … (peptide)
peptide: HAEGTFTSDVSSYLEGQAAKEFIAWLKR
modifications: Aib8; N-epsilon26 (so in the source) carries the acyl side chain printed in the name
notes: GLP-1-(7-34) = residues 1-28 of the entry
B16: N-alpha8-[2-(4-imidazolyl)acetyl] … (peptide)
peptide: {2‑(4-imidazolyl)acetyl}-AEGTFTSDVSSYLEEQAAREFIAWLVRGRK([AEEA-AEEA-γGlu-Trx′-C20 diacid])
modifications: reading uncertain; also: printed as N-alpha8-[2-(4-imidazolyl)acetyl] N-epsilon37-[2-(2-{2-[2-(2-{2-[(S)-4-Carboxy-4-({trans-4-[(19-carboxynonadecanoylamino)methyl]cyclohexanecarbonyl}amino)butyrylamino]ethoxy}ethoxy)acetylamino]ethoxy}ethoxy)acetyl][Glu22,Arg26,Arg34,Lys37]GLP-1-(8-37)
notes: GLP-1-(8-37) = residues 2-31 of the entry
B17: N-epsilon37{2-[2-(2-{2-[2-((S)-3-carboxy-3-{[1-(19-carboxynonadecanoyl)piperidine-4-carbonyl]amino}propionylamino)ethoxy]ethoxy}acetylamino)ethoxy]ethoxy}acetyl … (peptide)
peptide: H[Aib]EGTFTSDVSSYLEEQAAREFIAWLVRGRK-NH2
modifications: not fully specified (residue 31); printed as N-epsilon37{2-[2-(2-{2-[2-((S)-3-carboxy-3-{[1-(19-carboxynonadecanoyl)piperidine-4-carbonyl]amino}propionylamino)ethoxy]ethoxy}acetylamino)ethoxy]ethoxy}acetyl [Aib8,Glu22,Arg26,Arg34,Lys37]GLP-1-(7-37)amide

This assay has as its target T1, human serum albumin (HSA) (human, UniProt P02768 25-609, biotinylated).
T1 construct: also called biotinylated HSA
Briefly: competition SPA on biotinylated HSA, 125I acylated GLP-1 tracer.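 Also: streptavidin SPA beads carrying biotinylated HSA, competition incubated 20 h at room temperature, plates then read on a TopCount counter.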
Description: Streptavidin-SPA beads (GE Healthcare RPNQ0009) were incubated with biotinylated HSA for 5 hours. The beads were washed with buffer to remove unbound HSA. […] After 20 hours of gentle rocking at room temperature the plates were centrifuged and counted on a TopCounter.
A word on the EC50: it is the midpoint of the concentration-response curve. Low values mean greater potency, high ones weaker potency. For B1, the EC50 was 1 to 100 nM. Next, B2: 800 to 2000 nM. In turn, HAEGTFTSDVSSYLEEQAAREFIAWLVRGRK (Aib8; Lys37 N-epsilon carries the acyl side chain printed in the name) displayed an EC50 of 1 to 100 nM. B3 gave a concentration for a half-maximal effect (EC50) of 800 to 2000 nM.

B4: the concentration giving a half-maximal response (EC50) lay in the range of 1 to 100 nM. In the case of B5, the EC50 was more than 2000 nM. For HAEGTFTSDVSSYLEEQAAREFIEWLVKGRPK (Aib8; the added C-terminal Lys carries the acyl side chain printed in the name) [[Aib8,Glu22,Arg26,Glu30,Pro37]GLP-1-(7-37)Lys …], the EC50 is 150 to 300 nM. Regarding [Desaminohistidyl]AEGTFTSDVSSYLEGQAAREFIAWLVRGRGK([AEEA-AEEA-γGlu-Inp-C20 diacid]) [[DesaminoHis7,Arg26,34]-GLP-1 …], the EC50 was more than 2000 nM. Then B6, with 300 to 800 nM; and B7, with 1 to 100 nM. Turning to H[Aib]EGT[2Nal]TSDVSSYK([AEEA-AEEA-d(βAsp)-Inp-C18 diacid])EGQAAREFIEWLVKGRG-NH2, the 50% effective concentration (EC50) was 150 to 300 nM. As to B8, the EC50 was in the range of 800 to 2000 nM.

Consider B9, for which the concentration for a half-maximal effect (EC50) lay in the range of 150 to 300 nM.

B10 returned an EC50 of 800 to 2000 nM. In turn, B11 displayed an EC50 of 100 to 150 nM. On to H[Aib]EGTFTSDVSSYK([AEEA-AEEA-d(βAsp)-Inp-C18 diacid])EGQAARE[2Nal]IEWLVKGRG-NH2, for which the half-maximal effective concentration (EC50) is 800 to 2000 nM. B12: the EC50 lay within 100 to 150 nM. Consider B13, for which the EC50 was 150 to 300 nM.

In the case of B14, the EC50 was in the range of 300 to 800 nM. In turn, B15 came in with a 50% effective concentration (EC50) of 1 to 100 nM. As to H[Aib]EGTFTSDVSSYLEEQAAREFIAWLVRGRK([AEEA-AEEA-γGlu-Trx-C20 diacid])-NH2, the concentration for a half-maximal effect (EC50) lay in the range of 800 to 2000 nM. The molecule B16 displayed an EC50 of 150 to 300 nM. For the molecule B17, the EC50 was 300 to 800 nM.
